According to publication PMC8557155 (Annals of Nuclear Medicine, 2021):

Key:
clinical = assay: clinical; parameters: species or system human (Japanese patients); conditions: in vivo; for dose excreted: human, iv, 7.4 GBq, total radioactivity
[1] = in vivo; cited from earlier work
Description: This study is the first clinical trial on ^177Lu-DOTATATE for unresectable NETs in Japan. At 29.6 GBq, the absorbed dose to the kidney and red bone marrow was 16.8 Gy and 0.722 Gy, respectively. These values were lower than the reported threshold dose for the kidney (23 Gy) and the red bone marrow (2 Gy). The calculated absorbed doses to the kidney, spleen, red bone marrow, and liver were 0.568, 0.559, 0.0244 and 0.247 mGy/MBq, respectively, in this study. We compared the calculated absorbed dose to each organ with previously published studies in Caucasian populations. […] In this study, the primary lesions were located in the pancreas, stomach, and rectum. Therefore, many patients underwent pancreatectomy and colectomy before enrollment in the study; diarrhea is likely to occur more in such patients compared to primary midgut cases because pancreatic enzyme deficiency o ...

C[C@@H](O)[C@H](NC(=O)[C@@H]1CSSC[C@H](NC(=O)[C@@H](Cc2ccccc2)NC(=O)CN2CCN(CC(=O)O)CCN(CC(=O)O)CCN(CC(=O)O)CC2)C(=O)N[C@@H](Cc2ccc(O)cc2)C(=O)N[C@H](Cc2c[nH]c3ccccc23)C(=O)N[C@@H](CCCCN)C(=O)N[C@@H]([C@@H](C)O)C(=O)N1)C(=O)O [177Lu-DOTATATE, ^177Lu-DOTA^0-Tyr^3-octreotate, metal not drawn]
dose excreted (clinical; Biological cumulative urine excretion of radioactivity at 24 h after administration): 71.2%
dose excreted (clinical; Biological cumulative urine excretion of radioactivity in the first 4 h): 53.7%
dose excreted (clinical; Cumulative urinary excretion of radioactivity within the initial 6 h): 60.1%
Effective urinary radioactivity concentration, 0–1 h (clinical): 4.7 ± 1.9 GBq/L
Effective urinary radioactivity concentration, 4–6 h (clinical): 1.3 ± 1.1 GBq/L
Effective urinary radioactivity concentration, 6–24 h (clinical): 0.3 ± 0.1 GBq/L
Effective urinary radioactivity concentration, 24–48 h (clinical): 0.07 ± 0.03 GBq/L
Diarrhea, frequency [1]: 28.8%
Severe renal toxicities, frequency [1]: 0.9%
